Assay results taken from patent US20170224836A1 (Novartis, published 2017).

T1: human CDH6 on cells (human, UniProt P55285 54-790)
T1 sequence: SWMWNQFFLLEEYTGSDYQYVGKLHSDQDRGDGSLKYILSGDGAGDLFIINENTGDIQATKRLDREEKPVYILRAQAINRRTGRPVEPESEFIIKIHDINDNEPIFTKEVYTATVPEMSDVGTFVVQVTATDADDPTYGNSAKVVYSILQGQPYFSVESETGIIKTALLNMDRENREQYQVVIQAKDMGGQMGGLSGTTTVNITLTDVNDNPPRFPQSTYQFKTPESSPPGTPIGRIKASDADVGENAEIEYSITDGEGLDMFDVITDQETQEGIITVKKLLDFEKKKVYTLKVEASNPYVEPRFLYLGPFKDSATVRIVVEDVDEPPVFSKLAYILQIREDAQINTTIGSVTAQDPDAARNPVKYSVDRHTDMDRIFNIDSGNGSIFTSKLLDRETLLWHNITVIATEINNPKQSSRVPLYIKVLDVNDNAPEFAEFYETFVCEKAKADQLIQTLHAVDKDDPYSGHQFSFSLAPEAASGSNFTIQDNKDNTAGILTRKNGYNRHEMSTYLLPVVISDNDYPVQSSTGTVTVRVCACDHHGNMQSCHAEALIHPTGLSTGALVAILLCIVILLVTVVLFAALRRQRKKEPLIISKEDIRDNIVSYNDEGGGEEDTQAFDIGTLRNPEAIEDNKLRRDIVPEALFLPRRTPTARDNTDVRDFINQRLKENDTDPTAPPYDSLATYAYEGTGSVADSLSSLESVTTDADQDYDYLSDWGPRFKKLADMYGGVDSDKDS


molecular target: T1, human CDH6 on cells; experiment: cell-based or functional assay

Binder | Amax (%), inhibition of proliferation, OVCAR3 cells | Amax (%), inhibition of proliferation, OVCAR8 (engineered CDH6+) cells | IP [nM], inhibition of proliferation, OVCAR3 cells | IP [nM], inhibition of proliferation, OVCAR8 (engineered CDH6+) cells
NOV0712-SMCC-DM1 (antibody, human IgG1, kappa, V domains shown, SMCC-DM1 on primary amines, sites not stated) VH: QVQLLESGGGLVQPGGSLRLSCAASGFTFSSHGMHWVRQAPGKGLEWVSVISGSGSNTGYADSVKGRFTISRDNSKNTLYLQMNSLRAEDTAVYYCARQWGSYAFDSWGQGTLVTVSS VL: DIQMTQSPSSLSASVGDRVTITCRASQSISSYLNWYQQKPGKAPKLLIYAVSTLQSGVPSRFSGSGSGTDFTLTISSLQPEDFATYYCQQSGTFPPTTFGQGTKVEIKR | 88% | 95% | 0.065 nM | 0.015 nM
NOV0712-SPDB-DM4 (antibody, human IgG1, kappa, V domains shown, SPDB-DM4 on primary amines, sites not stated) VH: QVQLLESGGGLVQPGGSLRLSCAASGFTFSSHGMHWVRQAPGKGLEWVSVISGSGSNTGYADSVKGRFTISRDNSKNTLYLQMNSLRAEDTAVYYCARQWGSYAFDSWGQGTLVTVSS VL: DIQMTQSPSSLSASVGDRVTITCRASQSISSYLNWYQQKPGKAPKLLIYAVSTLQSGVPSRFSGSGSGTDFTLTISSLQPEDFATYYCQQSGTFPPTTFGQGTKVEIKR | 88% | 84% | 0.008 nM | 0.012 nM
NOV0710-SPDB-DM4 (antibody, human IgG1, kappa, V domains shown, SPDB-DM4 on primary amines, sites not stated) VH: QVQLLESGGGLVQPGGSLRLSCAASGFTFSSYAMSWVRQAPGKGLEWVSVIRSSGSSTYYADSVKGRFTISRDNSKNTLYLQMNSLRAEDTAVYYCARGGGYFDYWGQGTLVTVSS VL: DIQMTQSPSSLSASVGDRVTITCRASQSISLWLNWYQQKPGKAPKLLIYAASTLQSGVPSRFSGSGSGTDFTLTISSLQPEDFATYYCQQYYTSPYTFGQGTKVEIKR | 88% | 85% | 0.01 nM | 0.018 nM

molecular target: T1, human CDH6 on cells; experiment: cell-based or functional assay; remark: another data set of the same source

Binder | percent inhibition at 1.22 nM ADC, JHOS4 cells | percent inhibition at 1.22 nM ADC, KNS42 cells | percent inhibition at 1.22 nM ADC, NCIH661 cells | percent inhibition at 1.22 nM ADC, OVCAR3 cells | percent inhibition at 1.22 nM ADC, SNU8 cells
NOV0712-SMCC-DM1 (antibody, human IgG1, kappa, V domains shown, SMCC-DM1 on primary amines, sites not stated) VH: QVQLLESGGGLVQPGGSLRLSCAASGFTFSSHGMHWVRQAPGKGLEWVSVISGSGSNTGYADSVKGRFTISRDNSKNTLYLQMNSLRAEDTAVYYCARQWGSYAFDSWGQGTLVTVSS VL: DIQMTQSPSSLSASVGDRVTITCRASQSISSYLNWYQQKPGKAPKLLIYAVSTLQSGVPSRFSGSGSGTDFTLTISSLQPEDFATYYCQQSGTFPPTTFGQGTKVEIKR | 67.6% | 56.8% | 32.5% | 87.6% | 31.4%
NOV0719-SMCC-DM1 (antibody, human IgG1, kappa, V domains shown, SMCC-DM1 on primary amines, sites not stated) VH: QVQLLESGGGLVQPGGSLRLSCAASGFTFSSHWVHWVRQAPGKGLEWVSVISYMGSSTYYADSVKGRFTISRDNSKNTLYLQMNSLRAEDTAVYYCARGSYDMAFDVWGQGTLVTVSS VL: DIQMTQSPSSLSASVGDRVTITCRASQSIVSYLNWYQQKPGKAPKLLIYDASSLQSGVPSRFSGSGSGTDFTLTISSLQPEDFATYYCQQSGSHSITFGQGTKVEIKR | 27.2% | 41% | -9.87% | 76% | 3.18%
NOV0720-SMCC-DM1 (antibody, human IgG1, lambda, V domains shown, SMCC-DM1 on primary amines, sites not stated) VH: QVQLQQSGPGLVKPSQTLSLTCAISGDSVSSNSAGWNWIRQSPSRGLEWLGRIYYRSKWYNDYAVSVKSRITINPDTSKNQFSLQLNSVTPEDTAVYYCAREKYTVSFYDFFDYWGQGTLVTVSS VL: DIELTQPPSVSVSPGQTASITCSGDNIGSMTAHWYQQKPGQAPVLVIYDKNERPSGIPERFSGSNSGNTATLTISGTQAEDEADYYCQSWDDSYNSVVFGGGTKLTVLG | 43.5% | 57% | 1.94% | 80.7% | 3.56%
NOV0718-SMCC-DM1 (antibody, human IgG1, lambda, V domains shown, SMCC-DM1 on primary amines, sites not stated) VH: QVQLVESGGGLVKPGGSLRLSCAASGFTFNSYALHWVRQAPGKGLEWVGRIKSKTNGGTTDYAAPVKGRFTISRDDSKNTLYLQMNSLKTEDTAVYYCARVDATYSYSGYYYPMDYWGQGTLVTVSS VL: DIELTQPPSVSVSPGQTASITCSGDKIPTYTVHWYQQKPGQAPVLVIYDDNKRPSGIPERFSGSNSGNTATLTISGTQAEDEADYYCQSTASGTVVFGGGTKLTVLG | -5.03% | 3.5% | 2.51% | -3.8% | 3.35%
